In the supplement of paper PMC10567573:

B1: PKD2L1 (parent)
chain: TLARCAKDILGFAVMFFIVFFAYA
B2: TRIM43 (parent)
chain: NNSWIRKNSTMVNSEDIFLLLCLK

Variants of: B1
Assay: protein stability index of a GFP-peptide fusion (GPS, HEK-293T) (PSI 1-6); higher = more stable
Conditions: c terminus: a fixed tail appended
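Further: lentivirally expressed fusions sorted by FACS into six bins by GFP to DsRed ratio, PSI derived from sequencing read proportions per bin multiplied by bin number.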

Protein stability index, by site and new letter:
V19: A 2.61 | C 2.32 | D 3.22 | E 2.11 | F 2.13 | G 2.34 | H 3.19 | I 2.9 | K 2.34 | L 3.88 | M 2.58 | N 2.39 | P 2.99 | Q 3.48 | R 2.36 | S 2.36 | T 2.69 | W 3 | Y 2.5
F20: A 1.99 | C 2.57 | D 1.83 | E 2.77 | G 2.03 | H 2.07 | I 2.7 | K 2.48 | P 3.48 | Q 3.46 | R 2.42 | S 2.46 | T 1.92 | V 3.23 | W 1.56 | Y 2.46
F21: A 2.11 | C 3.17 | D 3.21 | G 2.08 | H 2.98 | I 3.32 | K 2.1 | L 1.94 | M 2.54 | N 2.78 | Q 1.38 | R 2.16 | S 2.01 | T 2.88 | W 2.46 | Y 3.96
A22: C 4.15 | E 2.82 | F 1.98 | G 4.34 | H 2.35 | I 1.91 | K 1.67 | L 2.14 | M 1.48 | N 2.92 | P 4.08 | Q 2.21 | R 1.95 | S 3.22 | T 1.83 | V 1.42 | W 2.69 | Y 2.58
Y23: A 1.7 | C 3.45 | E 2.56 | F 1.57 | G 2.6 | H 2.27 | I 1.51 | K 2.31 | L 2.34 | N 2.61 | P 2.51 | R 1.42 | S 2.47 | T 2.98 | V 2.37 | W 2.72
A24: C 1.23 | D 2.9 | F 2.65 | I 1.68 | K 2.06 | L 3.01 | M 1.92 | N 2.33 | P 3.52 | Q 2.42 | R 1.45 | V 1.63 | W 3.47 | Y 3.62

Variants of: B2
Assay: as above
Conditions: c terminus: a fixed tail appended

Protein stability index of substitutions, site by site:
N1: A 2.72 | D 2.27 | E 4.19 | F 3.27 | G 2.73 | H 3.28 | I 2.27 | K 3.25 | L 2.47 | M 2.72 | Q 2.11 | R 2.71 | S 2.39 | T 2.58 | V 3.04 | W 2.36 | Y 2.79
N2: C 2.89 | D 1.88 | E 3.2 | F 3.5 | G 3.56 | H 2.3 | I 2.32 | L 2.46 | M 3.25 | P 2.24 | Q 2.59 | R 2.93 | S 2.48 | T 2.14 | V 2.46 | W 2.65 | Y 3.58
S3: A 3.59 | C 3.41 | D 2.66 | E 3.25 | F 1.95 | H 2.64 | I 2.78 | K 2.5 | L 2.9 | M 3.38 | N 2.48 | P 2.4 | Q 3.18 | R 2.59 | T 4.59 | V 2.53 | W 3.13 | Y 3.59
W4: A 1.55 | C 3.11 | D 2.64 | F 2.91 | G 2.06 | H 3 | I 1.99 | K 2.72 | L 1.6 | M 2.59 | N 2.4 | P 2.73 | Q 2.62 | R 3.35 | S 3.31 | T 2.88 | V 3 | Y 3.95
I5: A 2.47 | C 2.8 | D 2.61 | E 3.23 | F 2.91 | H 3.14 | K 3.55 | L 2.8 | M 2.4 | N 3.07 | P 3.31 | Q 3.02 | R 2.13 | S 3.64 | T 3.2 | V 2.27 | W 4.27 | Y 2.56
R6: A 2.27 | C 3.31 | D 3.82 | E 1.89 | F 3.74 | G 2.76 | H 3.75 | I 2.66 | K 3.09 | L 2.03 | M 2.76 | N 3.63 | P 2.75 | S 2.97 | V 2.73 | W 3.13 | Y 3.78
K7: A 4.36 | C 2.73 | D 2.54 | E 2.84 | F 2.97 | G 3.14 | H 2.76 | I 2.71 | L 2.55 | M 2.73 | N 2.32 | P 3.02 | Q 2.47 | R 4.2 | S 2.95 | T 2.16 | V 2.61 | W 2.95 | Y 2.9
N8: A 2.9 | C 2.24 | D 3.07 | E 3.74 | G 2.72 | H 1.79 | I 2.73 | K 2.4 | L 2.61 | M 2.46 | P 2.28 | Q 2.93 | R 3.47 | S 2.69 | T 3.13 | V 1.94 | W 2.99 | Y 3.85
S9: A 2.99 | C 2.28 | D 3.01 | E 2.68 | F 2.03 | G 2.66 | H 2.91 | I 3.83 | K 2.54 | L 3.2 | M 2.34 | N 2.49 | P 3.63 | Q 2.69 | R 2.62 | T 2.62 | V 2.19 | W 4.39 | Y 3.67
T10: C 2.73 | D 1.98 | E 2.91 | F 3.41 | G 2.9 | H 3.31 | I 4.37 | K 3.25 | L 2.55 | M 2.48 | N 2.17 | P 2.82 | Q 3.06 | R 2.52 | S 3.33 | V 1.95 | W 4.55 | Y 3.22
M11: A 2.1 | C 2.06 | D 2.95 | E 1.74 | F 2.54 | G 3.08 | H 2.44 | I 1.89 | K 2.38 | L 3.95 | N 1.86 | P 2.15 | Q 3.54 | R 2.69 | S 2.27 | T 3.06 | V 2.69 | W 2.44 | Y 2.99
V12: A 2.57 | C 1.62 | D 1.97 | E 2.92 | F 2.89 | G 2.21 | H 1.81 | I 2.53 | K 2.75 | L 3.58 | M 3.38 | N 3.36 | P 2.79 | R 4.39 | S 4.3 | T 4.1 | W 2.41 | Y 3.38
N13: A 3.6 | C 3.44 | D 3.31 | E 2.47 | F 2.69 | G 3.19 | H 3 | I 2.37 | K 3.69 | L 2.44 | M 3.59 | P 2.87 | Q 3.14 | R 2.39 | S 2.96 | T 1.95 | V 2.72 | W 3.07 | Y 2.33
